Biological target: recombinant LanCL1 (Lanthionine synthetase C-like protein 1) (UniProt O43813)
Assay: competition: displacement of photoprobe SEQ ID NO:22 from rLANCL1, in-gel fluorescence

Sequence of recombinant LanCL1 (Lanthionine synthetase C-like protein 1) (O43813 whole entry): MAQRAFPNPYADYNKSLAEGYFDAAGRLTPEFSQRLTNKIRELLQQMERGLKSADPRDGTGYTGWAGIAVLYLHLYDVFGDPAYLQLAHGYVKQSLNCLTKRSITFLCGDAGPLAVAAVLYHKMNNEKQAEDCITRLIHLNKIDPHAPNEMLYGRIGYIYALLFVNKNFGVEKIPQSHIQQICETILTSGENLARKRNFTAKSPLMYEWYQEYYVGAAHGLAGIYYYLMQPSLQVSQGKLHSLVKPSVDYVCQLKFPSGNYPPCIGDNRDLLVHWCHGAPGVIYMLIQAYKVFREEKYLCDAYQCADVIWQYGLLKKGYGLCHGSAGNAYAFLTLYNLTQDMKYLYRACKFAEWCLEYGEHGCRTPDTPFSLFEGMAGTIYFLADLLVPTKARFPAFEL

ED50 displacement value: > 200 µM
B1: peptide of SEQ ID NO:39, RALNSS (peptide)
peptide: RALNSS
